For three substances, stoichiometry N results are on record in PMC2987827.

Holding throughout (experiment): cross-linking; 293T cells coexpressing FLAG- and HA-tagged Gag and V1B-MS2 viral RNA treated with 1 mM EGS, 30 min, room temperature; membrane flotation; cytoplasmic fraction (10th fraction) analysed by anti-FLAG western blot
For orientation: In western blotting, separated proteins are transferred to a membrane and probed.

The target in test [1] is HIV-1 G2A-Gag, FLAG- and HA-tagged (HIV-1).
Test [2] concerns the target HIV-1 Gag, FLAG- and HA-tagged (wild type) (HIV-1).
Test [3] has as its target HIV-1 Gag-delCTD, FLAG- and HA-tagged (lacking the C-terminal domain of capsid) (HIV-1).

By stoichiometry N is commonly meant a count of units in the complex or per binding partner. In test [1], “HIV-1 G2A-Gag, FLAG- and HA-tagged (natural protein)” registered a stoichiometry N of 2.
In test [2], “HIV-1 Gag, FLAG- and HA-tagged (wild type) (natural protein)” gave a stoichiometry N of 2.
“HIV-1 Gag-delCTD, FLAG- and HA-tagged (lacking the C-terminal domain of capsid) (natural protein)” gave a stoichiometry N in test [3] of 2.
